Experimental data reported in patent US20050233406A1, “Methods for high resolution identification of solvent accessible amide hydrogens in polypeptides and for characterization of polypeptide structure” (priority 2002, published 2005).

Target: T1, RIIα isoform of PKA (regulatory subunit) (Mus musculus, UniProt P12367)
T1 construct: made in house; host or cells: E. coli BL21 (DE3)
Experiment: Surface plasmon resonance binding of D-AKAP2 to immobilized RIIα (BIAcore 3000)
Parameters: species or system murine
Details: 1:1 binding model, average of three replicates, read-out: Kd (dissociation constant)
Protocol: FIG. 2 depicts the binding of D-AKAP2 to the regulatory subunit (RIIα) of PKA as determined using surface plasmon resonance. A total of 450 response units of RIIα were immobilized to a cAMP sensor chip. Serial dilutions (250-2 nM) of D-AKAP2 were injected over the surface. Both the one rate (kon) and the off rate (koff) were fit globally using the concentration series. A 1:1 binding model fits the data well and is illustrated as a bold line.
Binding of RIIa to D-AKAP2 was performed using a BIAcore 3000 (BIAcore). The regulatory subunit of PKA was immobilized to a CM5 chip (BIAcore) as described (Herberg et al., J. Mol. Biol., 298:329-339, 2000). […]
To evaluate the functional properties of this protein, binding of D-AKAP2 to the RIIα isoform of PKA was examined using surface plasmon resonance (Herberg et al., J. Mol. Biol. 298:329-339, 2000). […] D-AKAP2 was injected over the surface at varying concentrations and the affinity determined by fitting the curves to a 1:1 binding model (see FIG. 2).

T1 sequence (P12367 whole entry, canonical isoform): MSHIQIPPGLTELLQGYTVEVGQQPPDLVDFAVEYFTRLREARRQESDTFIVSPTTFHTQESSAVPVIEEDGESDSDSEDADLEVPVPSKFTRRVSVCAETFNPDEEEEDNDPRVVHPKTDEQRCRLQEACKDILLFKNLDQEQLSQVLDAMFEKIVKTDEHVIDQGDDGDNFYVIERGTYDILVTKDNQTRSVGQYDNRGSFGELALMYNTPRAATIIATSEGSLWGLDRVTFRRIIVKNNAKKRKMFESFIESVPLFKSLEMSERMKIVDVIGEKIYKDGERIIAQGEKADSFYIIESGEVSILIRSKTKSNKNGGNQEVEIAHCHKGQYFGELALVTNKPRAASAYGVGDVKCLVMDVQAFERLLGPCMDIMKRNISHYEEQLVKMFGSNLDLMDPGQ

## AKB domain alone: PKA kinase binding (AKB) domain of D-AKAP2 (residues 336-360), tested alone without the rest of the protein (DPNCFVLAQAVVFSAMEQEHFSEFL; UniProt O88845 336-360, looked up, fragment)
  Kd: 2 nM
